Data: publication PMC5134256 (Nature, 2016)

Molecular target: the molecule itself
Assay: crystal structure

B1: Cse2 subunit of E. coli Cascade, His6 tag cleaved (natural protein, E. coli K12, UniProt P76632 1-160, looked up)
chain: MADEIDAMALYRAWQQLDNGSCAQIRRVSEPDELRDIPAFYRLVQPFGWENPRHQQALLRMVFCLSAGKNVIRHQDKKSEQTTGISLGRALANSGRINERRIFQLIRADRTADMVQLRRLLTHAEPVLDWPLMARMLTWWGKRERQQLLEDFVLTTNKNA
  stoichiometry N: 2
